Test results reported in patent US20190071490A1, “Preventing Post-Ictal Headaches” (Beth Israel Deaconess Medical Center, Inc., priority 2017, published 2019).
Where a chain is given by its changes, count along the chain named. Names may count otherwise.

T1: human α-CGRP (Homo sapiens, UniProt P06881)
T1 construct: 1-37 (WT); purchased GenScript Corporation or Global Peptide Services
T1 sequence (P06881 83-119 limits assumed): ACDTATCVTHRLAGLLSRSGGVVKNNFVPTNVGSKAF

T2: rat α-CGRP (Rattus norvegicus, UniProt P01256)
T2 construct: rat α (1-37); purchased GenScript Corporation or Global Peptide Services
T2 sequence (P01256 83-119 limits assumed): T1 sequence (P06881 83-119 limits assumed) with A1S, D3N, N25D, K35E

B1: M37: G1 variant; L1 R28N T30S; H2 A57G; HC-FW3 L99T A100V (antibody, V domains shown)
VH: EVQLVESGGGLVQPGGSLRLSCAASGFTFSNYWISWVRQAPGKGLEWVAEIRSESDGSATHYAEAVKGRFTISRDNAKNSLYLQMNSLRAEDTAVYYCTVYFDYGLAIQNYWGQGTLVTVSS
VL: EIVLTQSPATLSLSPGERATLSCKASKNVSTYVSWYQQKPGQAPRLLIYGASNRYLGIPARFSGSGSGTDFTLTISSLEPEDFAVYYCSQSYNYPYTFGQGTKLEIK
B2: M39: G1 variant; L1 R28N; L2 G50A L56T; H2 A57N S58Y; HC-FW3 L99T A100V (antibody, V domains shown)
VH: B1 VH with G57N, S58Y
VL: B1 VL with S30T, G50A, L56T
B3: M43: G1 variant; L1 R28N; L2 G50A L56T; H2 E54K A57N S58C; HC-FW3 L99T A100V (antibody, V domains shown)
VH: B1 VH with E54K, G57N, S58C
VL: B1 VL with S30T, G50A, L56T
B4: M42: G1 variant; L1 R28N; L2 G50A L56T; H2 E54K A57N H61F; HC-FW3 L99T A100V (antibody, V domains shown)
VH: B1 VH with E54K, G57N, H61F
VL: B1 VL with S30T, G50A, L56T
B5: M44: G1 variant; L1 R28N; L2 G50A L56T; H2 E54K A57N S58E; HC-FW3 L99T A100V (antibody, V domains shown)
VH: B1 VH with E54K, G57N, S58E
VL: B1 VL with S30T, G50A, L56T
B6: M40: G1 variant; L1 R28N; L2 G50A L56T; H2 E54K A57L; HC-FW3 L99T A100V (antibody, V domains shown)
VH: B1 VH with E54K, G57L
VL: B1 VL with S30T, G50A, L56T
B7: M38: G1 variant; L1 R28N T30W; HC-FW3 L99T A100V (antibody, V domains shown)
VH: B1 VH with G57A
VL: B1 VL with S30W
B8: M45: G1 variant; L1 R28N; L2 G50A L56T; H2 E54K A57N S58E E64D; HC-FW3 L99T A100V (antibody, V domains shown)
VH: B1 VH with E54K, G57N, S58E, E64D
VL: B1 VL with S30T, G50A, L56T
B9: M41: G1 variant; L1 R28N; L2 G50A L56T; H2 E54K A57N E64D; HC-FW3 L99T A100V (antibody, V domains shown)
VH: B1 VH with E54K, G57N, E64D
VL: B1 VL with S30T, G50A, L56T

Biological target: T1, human α-CGRP
Test: Biacore SPR affinity of Fab fragments to N-biotinylated human α-CGRP on SA chip
Format: binding
Conditions: 37° C., screening mode except underlined values
Outline: (§1)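 HBS-EP pH 7.4 running buffer at 25° C. or 37° C.; N-biotinylated CGRP captured on streptavidin SA chip (<50 RU for kinetics), Fab titrated over surface with regeneration by 25 mM NaOH/25% ethanol. Titrations globally fit to 1:1 Langmuir model; KD=koff/kon, with 2-hour dissociation for very slow off-rates.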

| α-human koff [s⁻¹] | Molecule |
| --- | --- |
| 0.000226 | B1 |
| 0.000425 | B2 |
| 0.000263 | B3 |
| 0.000417 | B4 |
| 0.00021 | B5 |
| 0.00128 | B6 |
| 0.000218 | B7 |
| 0.000211 | B8 |
| 0.00021 | B9 |

Biological target: T2, rat α-CGRP
Test: Biacore SPR affinity of Fab fragments to N-biotinylated rat α-CGRP on SA chip
Format: binding
Conditions: 37° C., screening mode except underlined values
Outline: as §1

| α-rat koff [s⁻¹] | Molecule |
| --- | --- |
| 0.00145 | B1 |
| 0.00995 | B2 |
| 0.00453 | B3 |
| 0.00752 | B4 |
| 0.00613 | B5 |
| 0.36 | B6 |
| 0.00511 | B7 |
| 0.00558 | B8 |
| 0.00453 | B9 |
